We go through five molecules from patent publication US20250326817A1 (LA JOLLA INSTITUTE FOR IMMUNOLOGY, published 2025).

To fix the notation:
B1: mouse HVEM (Q39-Q206), wild type, fused to human IgG1 and a hexa-His tag (Fc fusion)
chain (part 1 of 2): QPSCRQEEFLVGDECCPMCNPGYHVKQVCSEHTGTVCAPCPPQTYTAHANGLSKCLPCGVCDPDMGLLTWQECSSWKDTVCRCIPGYFCENQDGSHCSTCLQHTTCPPGQRVEKRGTHDQDTVCADCLTGTFSLGGTQEECLPWTNCSAFQQEVRRGTNSTDTTCSSQ
chain (part 2 of 2): HHHHHH
notes: From Expi293 cells; also called mHVEM-hIgG1; mHVEMWT; not shown: human IgG1
B3: mouse CD160 residues I30-H154 with C-terminal HHHHHHGGGGSGLNDIFEAQKIEWHE, refolded from E. coli inclusion bodies (receptor)
chain: IHVTSSASQKGGRLDLTCTLWHKKDEAEGLILFWCKDNPWNCSPETNLEQLRVKRDPETDGITEKSSQLVFTIEQATPSDSGTYQCCARSQKPEIYIHGHFLSVLVTGNHTEIRQRQRSHPDFSHHHHHHHGGGGSGLNDIFEAQKIEWHE
modifications: biotin (mCD160-biotin in the cell staining assay; site not stated)
notes: range 30-154; also called mCD160; mCD160-biotin
B5: mouse BTLA, soluble protein (analyte of the Octet assay) (receptor, UniProt Q7TSA3 30-183, looked up)
chain: EKATKRNDEECPVQLTITRNSKQSARTGELFKIQCPVKYCVHRPNVTWCKHNGTICVPLEVSPQLYTSWEENQSVPVFVLHFKPIHLSDNGSYSCSTNFNSQVINSHSVTIHVRERTQNSSEHPLITVSDIPDATNASGPSTMEERPGRTWLLY
notes: The construct is not described; also called mBTLA; mBTLA-penta-His-tag

A value given as a limit tells only on which side of the number the result lay.

Assay [1] has as its target T1, single chain homotrimeric mouse LIGHT extracellular domain (G73-V239), N-terminal HHHHHHGG, joined by two … (mouse, UniProt Q9QYH9 73-239).
T1 construct: Soluble analyte of the Octet assay; from Expi293 cells; also called mLIGHT
T1 sequence: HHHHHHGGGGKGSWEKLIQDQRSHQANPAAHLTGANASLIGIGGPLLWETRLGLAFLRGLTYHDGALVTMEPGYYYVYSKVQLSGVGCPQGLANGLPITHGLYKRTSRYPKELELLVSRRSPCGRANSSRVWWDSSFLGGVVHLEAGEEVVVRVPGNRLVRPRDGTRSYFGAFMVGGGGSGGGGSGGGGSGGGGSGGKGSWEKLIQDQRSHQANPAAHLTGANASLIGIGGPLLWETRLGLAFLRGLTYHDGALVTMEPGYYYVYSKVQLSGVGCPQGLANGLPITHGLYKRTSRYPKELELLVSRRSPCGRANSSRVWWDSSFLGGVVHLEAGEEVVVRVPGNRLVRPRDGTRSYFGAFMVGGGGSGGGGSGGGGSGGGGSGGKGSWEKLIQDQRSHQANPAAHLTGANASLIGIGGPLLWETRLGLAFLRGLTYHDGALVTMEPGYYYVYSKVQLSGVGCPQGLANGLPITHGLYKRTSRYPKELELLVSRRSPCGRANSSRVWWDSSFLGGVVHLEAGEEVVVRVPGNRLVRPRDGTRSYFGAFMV
In words: Octet bio-layer interferometry, mHVEM-hIgG1 on the sensor, mLIGHT in solution. An excerpt:
(§1) Error bars represent results from at least triplicates. […] Ligands BTLA, CD160 and LIGHT are modeled based on the HVEM structures and are shown as labeled surfaces.
(§2) The results were exported and then analyzed using Prism 5 (GraphPad Software). Final response curves were generated after subtracting the responses of the control groups.
In general terms: Biolayer interferometry detects binding as a change in optical thickness at a sensor tip.

For assay [2], the target named is T1, single chain homotrimeric mouse LIGHT …. In words: Octet bio-layer interferometry, mHVEM-hIgG1 on the sensor, LIGHT in solution.
Description: as §2

In assay [3] the target is B3. In words: Octet BLI, mHVEM-hIgG1 immobilised (text says surface plasmon resonance).
Description: as §2

The target in assay [4] is T1, single chain homotrimeric mouse LIGHT …. The description is as above.
Description: as §2

Assay [5] concerns the target B5. The assay is described as above.
Description: as §2

The target in assay [6] is B5. In words: Octet bio-layer interferometry, mHVEM-hIgG1 on the sensor, mBTLA in solution.
Description: as §1, §2

In assay [7] the target is B3. Description: Octet bio-layer interferometry, mHVEM-hIgG1 on the sensor, mCD160 in solution.
Description: as §1, §2

Assay [8] deals with B5. Description: Octet bio-layer interferometry, mHVEM-hIgG1 on the sensor, BTLA in solution.
Description: as §2

In assay [9] the target is B3. Description: Octet bio-layer interferometry, mHVEM-hIgG1 on the sensor, CD160 in solution.
Description: as §2

For assay [10], the target named is B1. Description: Octet bio-layer interferometry, mHVEM-hIgG1 on the sensor, mCD160 in solution.
Description: as §1, §2

Assay [11] deals with B1. Description: Octet bio-layer interferometry, mHVEM-hIgG1 on the sensor, CD160 in solution.
Description: as §2

Assay [12] deals with B1. In words: Octet bio-layer interferometry, mHVEM-hIgG1 on the sensor, mBTLA in solution.
Description: as §1, §2

In assay [13] the target is B1. In words: Octet bio-layer interferometry, mHVEM-hIgG1 on the sensor, BTLA in solution.
Description: as §2

By Kd is commonly meant the concentration at which binding is half-saturated. Higher therefore signals a looser complex.

Consider B1, for which the Kd in [1] and in assay [2] was 0.0162 µM throughout.

B2: mouse HVEM (Q39-Q206) H86D-L90A fused to human IgG1 and a hexa-His tag, soluble form (Fc fusion)
chain (part 1 of 2): QPSCRQEEFLVGDECCPMCNPGYHVKQVCSEHTGTVCAPCPPQTYTADANGASKCLPCGVCDPDMGLLTWQECSSWKDTVCRCIPGYFCENQDGSHCSTCLQHTTCPPGQRVEKRGTHDQDTVCADCLTGTFSLGGTQEECLPWTNCSAFQQEVRRGTNSTDTTCSSQ
chain (part 2 of 2): HHHHHH
notes: also called mHVEM^-LIGHT; mHVEM-LIGHT; not shown: human IgG1
For the molecule B2, the Kd worked out at 31.7 µM in [1]; 5.3 µM in assay [6]; 33.5 µM in assay [7]; 31.7 µM in [2]; 5.3 µM in assay [8]; 33.5 µM in assay [9]. Besides, the figures for the “fold reduction of binding against wild-type mHVEM” value in assay [3] and in assay [5] were around 3 fold and around 5 fold, respectively. Moreover, the “log-fold decrease in binding against wild-type mHVEM” value in assay [4] is above 3 log-fold.

For B3, the Kd in assay [10] and in assay [11] was 11.6 µM each time.

B4: mouse HVEM (Q39-Q206) G72R-V74A fused to human IgG1 and a hexa-His tag, soluble form (Fc fusion)
chain (part 1 of 2): QPSCRQEEFLVGDECCPMCNPGYHVKQVCSEHTRTACAPCPPQTYTAHANGLSKCLPCGVCDPDMGLLTWQECSSWKDTVCRCIPGYFCENQDGSHCSTCLQHTTCPPGQRVEKRGTHDQDTVCADCLTGTFSLGGTQEECLPWTNCSAFQQEVRRGTNSTDTTCSSQ
chain (part 2 of 2): HHHHHH
notes: also called mHVEM^-BT/160; mHVEM-BT/160; not shown: human IgG1
As for B4, the Kd in assay [1] and in [2] was 0.0293 µM in each case. The binding result in assay [6] and in assay [7] was “no binding” throughout.

Regarding B5, the Kd in assay [12] and in [13] was 1.1 µM throughout.
